According to patent US20230331860A1 (Bristol-Myers Squibb, published 2023):

Key:
murine CD40 = molecular target: T1, murine CD40 (murine, UniProt P27512 24-193, limits assumed); assay: single-cycle kinetic SPR, CD40 on the surface
T1 construct: also called murine CD40 receptors
T1 sequence (looked up): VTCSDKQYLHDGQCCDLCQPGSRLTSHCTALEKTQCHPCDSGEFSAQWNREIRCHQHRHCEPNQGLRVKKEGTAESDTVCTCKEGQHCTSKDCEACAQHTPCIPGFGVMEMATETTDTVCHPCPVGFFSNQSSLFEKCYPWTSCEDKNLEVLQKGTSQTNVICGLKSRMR

cynomolgus CD40 [1] = molecular target: T2, cynomolgus CD40 (cynomolgus monkey, UniProt G7PG38 21-193); assay: binding to CD20-positive B cells in cynomolgus monkey whole blood, detected with secondary anti-human IgG1-PE; n=4 donors (same result in mass units)
T2 construct: also called monomeric cynomolgus CD40; monkey CD40 receptors

cynomolgus CD40 [2] = molecular target: T2, cynomolgus CD40; assay: direct binding of AF488-labeled antibody to CD20-positive B cells in cynomolgus monkey whole blood; n=2 donors
cynomolgus CD40 [3] = molecular target: T2, cynomolgus CD40; assay: direct binding of AF488-labeled antibody to CD20-positive B cells in cynomolgus monkey whole blood; n=2 donors (same result in mass units)
cynomolgus CD40 [4] = molecular target: T2, cynomolgus CD40; assay: binding to CD20-positive B cells in cynomolgus monkey whole blood, detected with secondary anti-human IgG1-PE; n=4 donors
human CD40 [5] = molecular target: T3, human CD40 (human, UniProt P25942 21-193); assay: cell-based or functional assay; design: IC50, suppression of CHO CD40L-induced IL-6 production by monocyte-derived DCs; n=4 donors (mass units as printed) / IC50, suppression of CHO CD40L-induced TNFα production by monocyte-derived DCs; n=4 donors (mass units as printed): unit not given beside the values
T3 sequence (P25942 21-193 limits assumed): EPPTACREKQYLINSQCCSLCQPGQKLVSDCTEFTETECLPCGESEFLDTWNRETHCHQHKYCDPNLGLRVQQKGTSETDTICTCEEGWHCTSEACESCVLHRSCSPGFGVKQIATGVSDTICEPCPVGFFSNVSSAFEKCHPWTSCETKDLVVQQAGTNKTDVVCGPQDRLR

hCD64 [6] = molecular target: T4, hCD64 (human, UniProt P12314 16-288, limits assumed); assay: FcγR binding, SPR (method per paragraph 74)
T4 construct: also called human CD64
T4 sequence (P12314 16-288 limits assumed): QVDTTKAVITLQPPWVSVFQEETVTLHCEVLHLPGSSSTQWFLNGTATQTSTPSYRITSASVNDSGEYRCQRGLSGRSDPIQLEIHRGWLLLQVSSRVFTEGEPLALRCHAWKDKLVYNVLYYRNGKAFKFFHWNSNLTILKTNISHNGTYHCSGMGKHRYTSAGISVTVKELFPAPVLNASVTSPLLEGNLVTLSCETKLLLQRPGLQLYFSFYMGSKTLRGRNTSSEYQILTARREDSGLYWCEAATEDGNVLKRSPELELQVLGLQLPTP

human CD40 [7] = molecular target: T3, human CD40; assay: direct binding of AF488-labeled antibody to CD20-positive B cells in human whole blood; n=4 donors
human CD40 [8] = molecular target: T3, human CD40; assay: cell-based or functional assay
cynomolgus CD40 [9] = molecular target: T2, cynomolgus CD40; assay: cell-based or functional assay
human CD40 [10] = molecular target: T3, human CD40; assay: SPR, antibody captured on protein A chip, monomeric CD40 as analyte
cynomolgus CD40 [11] = molecular target: T2, cynomolgus CD40; assay: as above
hCD16a-V158 = molecular target: T5, hCD16a-V158 (human, UniProt P08637 17-208, limits assumed); assay: FcγR binding, SPR (method per paragraph 74)
T5 construct: Position 158 is the customary allotype numbering; also called hCD16a/FcγRIIIa, V158 variant
T5 sequence (P08637 17-208 F176V limits assumed): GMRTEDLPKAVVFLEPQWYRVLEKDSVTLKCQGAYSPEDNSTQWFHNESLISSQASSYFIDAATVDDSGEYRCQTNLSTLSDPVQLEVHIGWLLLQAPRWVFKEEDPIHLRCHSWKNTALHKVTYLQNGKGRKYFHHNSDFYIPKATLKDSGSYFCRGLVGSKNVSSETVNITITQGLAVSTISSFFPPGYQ

hCD32b = molecular target: T6, hCD32b (human, UniProt P31994 43-217, limits assumed); assay: FcγR binding, SPR (method per paragraph 74)
T6 construct: also called hCD32b/FcγRIIb
T6 sequence (looked up): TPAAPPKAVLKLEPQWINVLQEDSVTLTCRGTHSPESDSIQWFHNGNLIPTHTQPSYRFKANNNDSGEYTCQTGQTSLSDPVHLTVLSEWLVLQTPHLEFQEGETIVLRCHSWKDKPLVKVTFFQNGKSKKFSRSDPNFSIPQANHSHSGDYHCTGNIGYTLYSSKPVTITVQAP

hCD32a-H131 = molecular target: T7, hCD32a-H131 (human, UniProt P12318 36-218, limits assumed); assay: FcγR binding, SPR (method per paragraph 74)
T7 construct: Position 131 is the customary allotype numbering; also called hCD32a/FcγRIIa, H131 variant
T7 sequence (looked up): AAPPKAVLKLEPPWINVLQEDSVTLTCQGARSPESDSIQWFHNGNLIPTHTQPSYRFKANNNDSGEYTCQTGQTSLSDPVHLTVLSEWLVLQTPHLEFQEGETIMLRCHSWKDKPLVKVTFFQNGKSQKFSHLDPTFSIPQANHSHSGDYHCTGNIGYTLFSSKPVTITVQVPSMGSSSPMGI

hCD64 [12] = molecular target: T4, hCD64; assay: FcγR binding, SPR (method per paragraph 74); remark: listed apart in the source
hCD16a-F158 = molecular target: T8, hCD16a-F158 (human, UniProt P08637 17-208, limits assumed); assay: FcγR binding, SPR (method per paragraph 74)
T8 construct: Position 158 is the customary allotype numbering; also called hCD16a/FcγRIIIa, F158 variant
T8 sequence (P08637 17-208 limits assumed): as the sequence (P08637 17-208 F176V limits assumed) above, with V160F counted along it

cyCD32a = molecular target: T9, cyCD32a (cynomolgus monkey, UniProt A0A140HDN0 30-216); assay: FcγR binding, SPR (method per paragraph 74)
T9 construct: also called cynomolgus CD32a
T9 sequence: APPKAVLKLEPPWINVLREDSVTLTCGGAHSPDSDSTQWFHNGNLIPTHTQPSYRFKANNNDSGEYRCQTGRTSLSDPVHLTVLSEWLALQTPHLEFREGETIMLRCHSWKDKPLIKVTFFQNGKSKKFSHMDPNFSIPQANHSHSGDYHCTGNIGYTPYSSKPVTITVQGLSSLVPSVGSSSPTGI

cyCD32b = molecular target: T10, cyCD32b (cynomolgus monkey, UniProt A0A140HDP4 43-217); assay: FcγR binding, SPR (method per paragraph 74)
T10 construct: also called cynomolgus CD32b
T10 sequence: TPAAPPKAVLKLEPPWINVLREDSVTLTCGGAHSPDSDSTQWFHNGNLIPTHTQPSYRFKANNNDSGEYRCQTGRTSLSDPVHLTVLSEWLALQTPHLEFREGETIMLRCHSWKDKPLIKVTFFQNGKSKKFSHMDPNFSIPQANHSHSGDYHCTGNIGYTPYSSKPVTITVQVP

hCD32a-R131 = molecular target: T11, hCD32a-R131 (human, UniProt P12318 36-218, limits assumed); assay: FcγR binding, SPR (method per paragraph 74)
T11 construct: Position 131 is the customary allotype numbering; also called hCD32a/FcγRIIa, R131 variant
T11 sequence (looked up): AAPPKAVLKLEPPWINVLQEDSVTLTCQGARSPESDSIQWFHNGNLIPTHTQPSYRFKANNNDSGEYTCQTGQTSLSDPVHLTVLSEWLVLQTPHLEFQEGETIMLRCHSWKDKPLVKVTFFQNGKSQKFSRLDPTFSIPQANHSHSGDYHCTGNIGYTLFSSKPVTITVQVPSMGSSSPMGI

cyCD16 = molecular target: T12, cyCD16 (cynomolgus monkey, UniProt Q8SPW2 17-208, limits assumed); assay: FcγR binding, SPR (method per paragraph 74)
T12 construct: also called cynomolgus CD16
T12 sequence (Q8SPW2 17-208 limits assumed): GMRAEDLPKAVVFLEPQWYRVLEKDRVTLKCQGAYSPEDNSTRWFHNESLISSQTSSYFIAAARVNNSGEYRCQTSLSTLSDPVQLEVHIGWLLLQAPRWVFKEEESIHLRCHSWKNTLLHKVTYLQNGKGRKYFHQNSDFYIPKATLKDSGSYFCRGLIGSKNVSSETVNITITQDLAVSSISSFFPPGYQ

human CD40 [13] = molecular target: T3, human CD40; assay: direct binding of AF488-labeled antibody to CD20-positive B cells in human whole blood; n=4 donors (same result in mass units)

B1: BMS-986325 (antibody, human IgG1, kappa)
heavy: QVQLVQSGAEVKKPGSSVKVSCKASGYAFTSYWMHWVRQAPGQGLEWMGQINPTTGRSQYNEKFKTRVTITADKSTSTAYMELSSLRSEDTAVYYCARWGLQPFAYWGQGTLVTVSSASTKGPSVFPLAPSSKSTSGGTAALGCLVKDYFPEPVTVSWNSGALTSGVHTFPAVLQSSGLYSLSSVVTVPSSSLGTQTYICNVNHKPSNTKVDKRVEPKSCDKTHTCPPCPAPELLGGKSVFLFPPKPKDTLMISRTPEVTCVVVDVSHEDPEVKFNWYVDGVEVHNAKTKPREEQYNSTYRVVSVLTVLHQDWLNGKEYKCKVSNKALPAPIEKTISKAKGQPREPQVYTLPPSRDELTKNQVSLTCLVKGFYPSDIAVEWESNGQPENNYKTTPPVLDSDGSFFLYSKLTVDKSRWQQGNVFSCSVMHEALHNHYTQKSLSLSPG
light: DIQMTQSPSFLSASVGDRVTITCKASQDVSTAVAWYQQKPGKAPKLLIYSASYRYTGVPSRFSGSGSGTDFTLTISSLQPEDFATYYCQQHYSTPWTFGGGTKVEIKRTVAAPSVFIFPPSDEQLKSGTASVVCLLNNFYPREAKVQWKVDNALQSGNSQESVTEQDSKDSTYSLSSTLTLSKADYEKHKVYACEVTHQGLSSPVTKSFNRGEC
notes: also called Y12XX-hz28-P238K; Y12XX-hz28 (Vh-hz14)
- binding result (murine CD40): no binding
- EC50 (cynomolgus CD40 [1]): 0.106 µg/mL
- EC50 (cynomolgus CD40 [2]): 1 nM
- EC50 (cynomolgus CD40 [3]): 0.149 µg/mL
- EC50 (cynomolgus CD40 [4]): 0.7 nM
- IC50, suppression of CHO CD40L-induced IL-6 production by monocyte-derived DCs; n=4 donors (human CD40 [5]): 0.08 nM
- IC50, suppression of CHO CD40L-induced IL-6 production by monocyte-derived DCs; n=4 donors (mass units as printed) (human CD40 [5]): 11.3
- IC50, suppression of CHO CD40L-induced TNFα production by monocyte-derived DCs; n=4 donors (human CD40 [5]): 0.1 nM
- IC50, suppression of CHO CD40L-induced TNFα production by monocyte-derived DCs; n=4 donors (mass units as printed) (human CD40 [5]): 13.3
- fold weaker binding than wild-type human IgG1 control (hCD64 [6]): 100 fold
- EC50 (human CD40 [7]): 0.9 nM
- IC50, inhibition of CD54 upregulation on human B cells in whole blood stimulated by soluble CD40L trimer; n=10 donors (human CD40 [8]): 0.24 nM
- IC50, inhibition of CD54 upregulation on human B cells in whole blood stimulated by soluble CD40L trimer; n=10 donors (mass units) (human CD40 [8]): 0.0346 µg/mL
- IC50, inhibition of CD86 upregulation on human B cells in whole blood stimulated by soluble CD40L trimer; n=10 donors (human CD40 [8]): 0.24 nM
- IC50, inhibition of CD86 upregulation on human B cells in whole blood stimulated by soluble CD40L trimer; n=10 donors (mass units) (human CD40 [8]): 0.0342 µg/mL
- IC50, inhibition of human tonsillar B-cell proliferation stimulated by soluble CD40L trimer; n=10 donors (human CD40 [8]): 0.04 nM
- IC50, inhibition of human tonsillar B-cell proliferation stimulated by soluble CD40L trimer; n=10 donors (mass units) (human CD40 [8]): 0.0056 µg/mL
- IC50, inhibition of tonsillar B-cell proliferation stimulated by CD40L-expressing CHO cells; n=8 donors (human CD40 [8]): 0.28 nM
- IC50, inhibition of tonsillar B-cell proliferation stimulated by CD40L-expressing CHO cells; n=8 donors (mass units) (human CD40 [8]): 0.0399 µg/mL
- IC50, inhibition of CD86 upregulation on cynomolgus B cells in whole blood stimulated by soluble CD40L trimer; n=8 donors (cynomolgus CD40 [9]): 0.25 nM
- IC50, inhibition of CD86 upregulation on cynomolgus B cells in whole blood stimulated by soluble CD40L trimer; n=8 donors (mass units) (cynomolgus CD40 [9]): 0.0364 µg/mL
- IC50, inhibition of cynomolgus splenic B-cell proliferation driven by CD40L-expressing CHO cells; n=6 donors (cynomolgus CD40 [9]): 4.5 nM
- IC50, inhibition of cynomolgus splenic B-cell proliferation driven by CD40L-expressing CHO cells; n=6 donors (mass units) (cynomolgus CD40 [9]): 0.65 µg/mL
- IC50, inhibition of cynomolgus splenic B-cell proliferation driven by CD40L-trimer; n=6 donors (cynomolgus CD40 [9]): 0.19 nM
- IC50, inhibition of cynomolgus splenic B-cell proliferation driven by CD40L-trimer; n=6 donors (mass units) (cynomolgus CD40 [9]): 0.0278 µg/mL
- Kd (human CD40 [10]): 5.3 nM
- koff (human CD40 [10]): 0.0012 s⁻¹
- kon (human CD40 [10]): 230000 M⁻¹ s⁻¹
- Kd (cynomolgus CD40 [11]): 6.7 nM
- koff (cynomolgus CD40 [11]): 0.0016 s⁻¹
- kon (cynomolgus CD40 [11]): 240000 M⁻¹ s⁻¹
- binding result (hCD16a-V158): no binding
- binding result (hCD32b): no binding
- binding result (hCD32a-H131): no binding
- Kd (hCD64 [12]): 17 nM
- binding result (hCD16a-F158): no binding
- binding result (cyCD32a): no binding
- binding result (cyCD32b): no binding
- binding result (hCD32a-R131): no binding
- binding result (cyCD16): no binding
- EC50 (human CD40 [13]): 0.13 µg/mL
